Values of other authors in publication PMC3222890.
Like-named read-outs stand apart in the source and are kept apart here. Values belong to the substance of their own block, whether it stands above or below them.

Legend:
[1] = molecular target: GDI (Saccharomyces cerevisiae) (UniProt P39958)
[2] = molecular target: GDI (Saccharomyces cerevisiae) (UniProt P39958); remark: listed apart in the source
[3] = molecular target: GDI (Saccharomyces cerevisiae) (UniProt P39958); remark: listed apart in the source

UniProt P39958, sequence (P39958 whole entry): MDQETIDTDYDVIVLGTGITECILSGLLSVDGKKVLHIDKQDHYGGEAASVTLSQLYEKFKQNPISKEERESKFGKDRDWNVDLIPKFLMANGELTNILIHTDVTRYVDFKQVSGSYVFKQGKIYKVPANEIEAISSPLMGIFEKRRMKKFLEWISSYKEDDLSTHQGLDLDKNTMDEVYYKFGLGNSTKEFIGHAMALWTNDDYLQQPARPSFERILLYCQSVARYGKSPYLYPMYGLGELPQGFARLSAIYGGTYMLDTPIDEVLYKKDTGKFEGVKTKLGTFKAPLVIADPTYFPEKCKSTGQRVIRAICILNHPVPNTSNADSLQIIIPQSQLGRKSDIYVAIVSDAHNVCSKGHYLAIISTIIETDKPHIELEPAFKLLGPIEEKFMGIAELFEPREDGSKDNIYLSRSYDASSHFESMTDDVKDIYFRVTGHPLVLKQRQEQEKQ

Kd [1]: 1500 nM
Substance: Ypt32 (from UniProt P51996)

Kd [2]: 330 nM
Substance: Sec4 (from UniProt P07560)

Kd [3]: 18900 nM
Substance: Ypt31 (from UniProt P38555)
